Test results published in patent US12428446B2, “Peptide compound or pharmaceutically acceptable salt thereof” (Eyebio Korea, priority 2019, dated 2025).
Primed or numbered codes have the meaning given here. Where no end group is shown, it is not given here. [ ]: non-standard residue; d: D form. Asu′ = aspartimide (aminosuccinimide); Hyp = O=C(O)[C@@H]1C[C@@H](O)CN1; Tle = CC(C)(C)[C@H](N)C(=O)O; Aib = CC(C)(N)C(=O)O

Experiment: Evaluation of dissolution stability (content change on storage in dissolved state)
Assay type: physicochemical
Conditions: 1 mg/1 ml dissolved state, 40° C. and RH 75%

Substance	Day 1 content (%)	Day 3 content (%)	Day 7 content (%)	Initial content (%)
Hyp-Gly-Gln-Asp-Gly-Leu-D Ala ([Hyp]GQDGL[dA]) [Example 66]	89.15	79.64	60.49	96.42
Hyp-Gly-Gln-Asp-Gly-Pro-Lys ([Hyp]GQDGPK) [Example 28]	98.50	97.37	96.19	99.14
Hyp-Gly-Gln-Asp-Gly-Val ([Hyp]GQDGV) [Example 71]	93.07	88.76	82.04	95.21
Hyp-Gly-Gln-Asp-Gly-Val-Ala ([Hyp]GQDGVA) [Example 72]	95.91	90.84	82.07	97.08
Hyp-Gly-Gln-Asp-Leu-Leu ([Hyp]GQDLL) [Example 35]	97.50	95.78	93.68	98.51
Hyp-Gly-Gln-Asp-Leu-Leu-Ala ([Hyp]GQDLLA) [Example 38]	92.19	88.19	85.93	97.06
Hyp-Gly-Gln-Asp-Val ([Hyp]GQDV) [Example 21]	79.91	77.37	69.10	84.05
Hyp-Gly-Gln-Asp-Val-Leu [Example 22] ([Hyp]GQDVL)	85.47	83.10	82.67	88.14
Hyp-Gly-Gln-Asp-Val-Leu [Example 34] ([Hyp]GQDVL)	97.05	95.50	91.59	97.18
Hyp-Gly-Gln-Asp-Val-Leu-Ala ([Hyp]GQDVLA) [Example 23]	95.25	94.22	90.56	96.40
Hyp-Gly-Gln-Asp-Val-Leu-Ala-Gly ([Hyp]GQDVLAG) [Example 24]	96.14	95.71	95.13	96.57
Hyp-Gly-Gln-Asu-Gly ([Hyp]GQ[Asu′]G) [Example 100]	93.43	85.30	74.12	97.58
Hyp-Gly-Gln-Asu-Gly (isopropyl ester) [Example 109]	79.15	69.45	59.07	85.34
Hyp-Gly-Gln-Asu-Gly-Leu ([Hyp]GQ[Asu′]GL) [Example 101]	86.61	86.38	83.40	88.72
Hyp-Gly-Gln-Asu-Gly-Leu (isopropyl ester) [Example 111]	90.71	82.07	69.37	97.48
Hyp-Gly-Gln-Asu-Gly-Leu-Ala ([Hyp]GQ[Asu′]GLA) [Example 102]	90.18	85.07	81.09	92.47
Hyp-Gly-Gln-Asu-Gly-Leu-Ala (isopropyl ester) [Example 113]	92.40	85.41	72.35	93.25
Hyp-Gly-Gln-D Asp-Gly-Leu ([Hyp]GQ[dD]GL) [Example 61]	87.65	83.70	56.36	92.80
Hyp-Gly-Gln-D Asp-Leu ([Hyp]GQ[dD]L) [Example 125]	97.15	95.07	88.48	98.28
Hyp-Gly-Gln-Glu-Aib-Leu-Ala ([Hyp]GQE[Aib]LA) [Example 92]	97.05	96.92	96.56	96.92
Hyp-Gly-Gln-Glu-Gly ([Hyp]GQEG) [Example 67]	99.14	98.75	98.07	98.36
Hyp-Gly-Gln-Glu-Gly-Leu ([Hyp]GQEGL) [Example 68]	98.25	97.51	96.93	98.71
Hyp-Gly-Gln-Glu-Gly-Leu-Ala ([Hyp]GQEGLA) [Example 69]	96.94	96.32	95.69	97.12
Hyp-Gly-Gln-Glu-Leu ([Hyp]GQEL) [Example 90]	98.58	98.32	97.94	98.68

Substance	Day 1 content (%)	Day 3 content (%)	Day 7 content (%)	Initial content (%)
Hyp-Gly-Gln-Glu-Leu-Leu ([Hyp]GQELL) [Example 88]	98.94	98.07	97.37	99.23
Hyp-Gly-Gln-Glu-Phenyl Gly-Leu-Ala [Example 94]	98.77	98.43	98.15	98.59
Hyp-Gly-Gln-Glu-Val-Leu ([Hyp]GQEVL) [Example 89]	99.07	98.81	98.43	99.57
Hyp-Gly-Gln-Glu-Val-Leu-Ala ([Hyp]GQEVLA) [Example 87]	98.07	96.57	94.38	99.14
Hyp-Gly-Gln-Glu-tert Leu-Leu-Ala ([Hyp]GQE[Tle]LA) [Example 93]	98.35	98.05	97.79	98.39
Hyp-Gly-Gln-His-Gly-Leu ([Hyp]GQHGL) [Example 82]	92.51	85.09	79.04	97.54
Hyp-Gly-Gln-His-Gly-Leu-Ala ([Hyp]GQHGLA) [Example 80]	97.18	97.13	97.07	98.44
Hyp-Gly-Gln-Leu-Gly-Leu-Ala-Gly ([Hyp]GQLGLAG) [Example 17]	96.53	96.69	96.27	96.55
Hyp-Gly-Gln-Leu-Leu ([Hyp]GQLL) [Example 121]	99.29	99.13	99.22	99.39
Hyp-Gly-Gln-Leu-Leu-Leu ([Hyp]GQLLL) [Example 98]	99.07	98.86	98.74	99.03
Hyp-Gly-Gln-Leu-Leu-Leu-Ala ([Hyp]GQLLLA) [Example 96]	97.14	96.64	96.02	98.07
Hyp-Gly-Gln-Leu-Val ([Hyp]GQLV) [Example 95]	98.62	98.10	97.78	98.64
Hyp-Gly-Gln-Leu-Val-Leu ([Hyp]GQLVL) [Example 99]	99.44	99.28	99.15	99.45
Hyp-Gly-Gln-Leu-Val-Leu-Ala ([Hyp]GQLVLA) [Example 97]	95.01	94.31	94.08	97.08
Hyp-Gly-Leu-Ala-Gly-Pro-Lys ([Hyp]GLAGPK) [Example 27]	98.16	98.15	98.16	98.24
Hyp-Leu-Gln-Asp-Gly ([Hyp]LQDG) [Example 75]	91.10	75.24	61.06	98.53
Hyp-Val-Gln-Asp-Gly ([Hyp]VQDG) [Example 74]	92.95	85.57	79.66	98.01
LGLAGPK [Example 20]	98.77	99.69	99.66	99.35
Leu-Ala-Gly-Pro-Lys (LAGPK) [Example 25]	85.76	81.09	77.40	89.14
PGQDGL [Example 77]	86.66	80.88	69.44	92.01
PGQDGLA [Example 78]	92.18	85.14	74.01	97.41
Pro-Gly-Gln-Asp-Gly (PGQDG) [Example 76]	90.01	82.34	69.13	95.07
QDGLAGPK [Example 16]	47.33	16.48	10.78	80.41
